Laboratory results published in patent US20200239573A1 (CRESCENDO BIOLOGICS, published 2020).

Target: human PD-1 on primary human CD4+ T cells (human, UniProt Q15116 21-288)
Experiment: flow cytometry, PHA-stimulated human CD4+ T cells, donor 1
Procedure: Binding of monovalent single domain antibodies and multivalent binding agents to T cells was measured using flow cytometry. […] T-cells were stimulated with 2.5 μg/ml PHA for 2-4 days in RPMI media supplemented with 10% FBS, 2 mM Glutamine, 1× Pen/Strep. Cells were transferred into 96 well plates (75000 per well), blocked for 10 mins with PBS/1% BSA, then incubated with serially diluted VH in staining buffer (PBS/1% BSA) for 1 hour at 4° C. Cells were washed with staining buffer by centrifugation then incubated with 10 μg/ml biotinylated Anti His antibody for 40 mins at 4° C. Cells were washed again then stained with Streptavidin Alexa Fluor-488 (10 μg/ml) and 1:5000 diluted Live Dead near IR stain (Molecular Probes cat no. L10119) for 30 mins at 4° C. After further washing cells were fixed and fluorescence measured by flow cytometry.

Sequence of human PD-1 on primary human CD4+ T cells (Q15116 21-288): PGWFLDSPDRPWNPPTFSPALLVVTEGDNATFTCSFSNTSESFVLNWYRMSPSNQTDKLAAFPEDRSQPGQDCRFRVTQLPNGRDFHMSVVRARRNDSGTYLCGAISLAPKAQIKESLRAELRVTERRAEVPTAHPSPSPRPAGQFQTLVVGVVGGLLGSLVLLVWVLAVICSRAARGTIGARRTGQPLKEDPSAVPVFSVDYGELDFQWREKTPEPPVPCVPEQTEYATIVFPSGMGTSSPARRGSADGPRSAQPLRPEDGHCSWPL

B1: Humabody® 1.92 (VHH)
VHH: EVQLVESGGGLVKPGGSLRLSCAASGFTFSDESMTWMRQAPGKGLEWVSYISSGGGVKFYADSVKGRFTISRDNAKNSLYLQMNSLRAEDTAVYYCAREAPLRLGESPHDAFDISGQGTMVTVSS
notes: human VH single domain antibody
B1 showed an EC50 of 0.8 nM.
